What was measured:
[1] = target: T1, chimeric TNFR1-PDGFR receptor (full length human TNFR1 fused to cytoplasmic domain of mouse PDGFR) (Homo sapiens, UniProt P19438); test: Ca2+-dependent aequorin luminescence in HEK293T Aequorin cells expressing the chimeric receptor (HTS setting); assay type: cell-based
T1 construct: 1, 2; full length; cytoplasmic domain (cp); expressed in transfected cells; host or cells: HEK293T cells stably expressing apoaequorin
Text: HEK293T stably expressing Apoaequorin were generated using standard cloning techniques. The HEK293T cells expressing Apoaequorin (“Aequorin cells”) were then further transfected as described in Examples 1-3 so as to express the chimeric receptors 1-3 as listed in Table 3.
In particular, the HEK293T Apoaequorin cells were transfected with pcDNA3.1 hygro TNFR1-fl-PDGFR-cd vector as prepared in Example 1 using Optifect™ Transfection Reagent (Invitrogen), according to the manufacturer's protocol.
HEK293T cells expressing Apoaequorin and the chimeric receptor (Example 4) were plated in 384-well plates at a concentration of 12500 cells per well in a final volume of 50 μl. […] A FDSS7000 reader from Hamamatsu (Japan) was used to examine intracellular calcium levels. […] The instrument features include detection with a camera of fluorescence or luminescence and automatically converts fluorescence or luminescence signals into numeric data. This digital data is then used to determine the concentration of calcium inside the analyzed cells. The information is automatically analyzed in terms of a positive, negative or null effect of each test compound being examined. This system allowed differences between untreated and treated cells to be measured, for example by measuring the calcium flux in cells. […]

[2] = target: chimeric receptor: full length human TNFR1 fused to the cytoplasmic tyrosine kinase domain of mouse PDGFR (human TNFR1; mouse PDGFR); test: cell-based or functional assay
chimeric receptor: full length human TNFR1 fused to the cytoplasmic tyrosine kinase domain of mouse PDGFR (human TNFR1; mouse PDGFR), sequence (chain, as listed by the source mutant limits assumed): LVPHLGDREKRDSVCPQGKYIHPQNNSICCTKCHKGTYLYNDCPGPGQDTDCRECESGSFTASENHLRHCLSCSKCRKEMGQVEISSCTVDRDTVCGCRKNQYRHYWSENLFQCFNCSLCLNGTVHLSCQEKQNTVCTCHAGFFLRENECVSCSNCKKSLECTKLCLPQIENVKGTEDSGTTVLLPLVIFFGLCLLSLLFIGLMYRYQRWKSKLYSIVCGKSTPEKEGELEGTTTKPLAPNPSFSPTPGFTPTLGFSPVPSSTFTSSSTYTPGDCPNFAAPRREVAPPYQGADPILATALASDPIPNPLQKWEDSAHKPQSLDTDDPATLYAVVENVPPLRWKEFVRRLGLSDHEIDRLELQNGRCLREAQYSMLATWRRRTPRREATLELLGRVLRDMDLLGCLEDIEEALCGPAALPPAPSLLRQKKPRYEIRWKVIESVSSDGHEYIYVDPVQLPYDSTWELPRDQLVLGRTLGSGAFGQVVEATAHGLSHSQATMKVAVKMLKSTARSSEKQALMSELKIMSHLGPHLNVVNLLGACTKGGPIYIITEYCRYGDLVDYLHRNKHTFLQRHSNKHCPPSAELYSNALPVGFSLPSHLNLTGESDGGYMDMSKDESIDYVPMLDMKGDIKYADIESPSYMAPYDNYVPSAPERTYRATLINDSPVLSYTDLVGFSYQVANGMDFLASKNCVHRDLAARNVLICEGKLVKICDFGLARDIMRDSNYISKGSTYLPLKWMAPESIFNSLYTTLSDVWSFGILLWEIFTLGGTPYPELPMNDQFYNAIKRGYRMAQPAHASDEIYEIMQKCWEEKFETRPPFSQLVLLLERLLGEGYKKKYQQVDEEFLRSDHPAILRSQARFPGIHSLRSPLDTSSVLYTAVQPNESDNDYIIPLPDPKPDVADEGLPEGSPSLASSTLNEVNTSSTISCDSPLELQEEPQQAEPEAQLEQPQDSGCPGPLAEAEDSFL

TNF (ligand), sequence (P01375 77-233): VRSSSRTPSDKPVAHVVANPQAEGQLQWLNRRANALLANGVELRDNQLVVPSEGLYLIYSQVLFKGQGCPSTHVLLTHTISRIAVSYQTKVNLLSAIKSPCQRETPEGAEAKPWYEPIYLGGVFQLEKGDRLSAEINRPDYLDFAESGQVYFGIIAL
T1 sequence (P19438 with tags, fused parts or gaps): as the sequence (chain, as listed by the source mutant limits assumed) above

Row | Molecule | Effect on TNF-dependent intracellular calcium increase ([1]; 1 μM inhibitor, 3 ng/ml TNF, FIG. 5b) | Inhibitory efficacy, dose response compared with cells expressing full-length PDGFR ([1]; inhibitor 3 μM to 0.45 nM, cells exposed to TNF, FIG. 6) | EC50, Ca2+-dependent aequorin luminescence, AUC over 10 minutes [2] [ng/mL] | EC50, Ca2+-dependent aequorin luminescence, Max-Min [2] [ng/mL] | EC80, Ca2+-dependent aequorin luminescence, AUC over 10 minutes [2] [ng/mL] | EC80, Ca2+-dependent aequorin luminescence, Max-Min [2] [ng/mL]
1 | COc1cc2ncnc(N3CCN(C(=O)Nc4ccc(Oc5ccccc5)cc4)CC3)c2cc1OC [PDGFR Tyrosine Kinase Inhibitor III, 4-(6,7-Dimethoxy-4-quinazolinyl)-N-(4-phenoxyphenyl)-1-piperazinecarboxamide] | prevented the detection of intracellular calcium increase | equal inhibitory efficacy | – | – | – | –
2 | TNF (ligand) | – | – | 1.27 | 1.06 | 2.9 | 3
